Molecular target: T1, FKBP12 drug-induced heterodimerization domain (DmrA) (Homo sapiens (Human), UniProt P62942 2-108)
T1 construct: also called FKBP12-DmRA; FKBP12 heterodimerizing domain
Experiment: drug-induced heterodimerization inside mouse T cells, with 1 µM AP21967; read out as hCD34 surface expression by flow cytometry (FIG. 9B)
Source text: In the instant example, mouse T cells were transduced with the following 2 vectors (FIG. 9A): (Vector 1) encodes a Thy1.1 reporter and a drug-activated intein-tagged antigen-binding construct comprised of a CD19-targeting scFv fused to a hCD34 affinity-tag, a CD8 hinge and transmembrane domain, an AES CL low affinity intein N terminus, an FKBP12 drug-induced heterodimerization domain (DmrA), and an E319K ER retention motif, while (Vector 2) encodes an EGFP reporter and a cytoplasmic signaling shuttle comprised of a FRB drug-induced heterodimerization domain (DmrC), an AES CL low affinity intein C terminus, a CD28 costimulatory domain, and a CD3-zeta chain. In the absence of the dimerizing drug, hCD34 expression at the cell surface is low due to presence of the ER retention motif encoded by Vector1 (FIG. 9B). […] Thus, this system enables drug-regulated splicing to regulate post-translational CAR assembly. Double-transduced cells were cultured with 1 μM A/C heterodimerizing drug and subsequently enriched by MACS sorting using anti-hCD34 magnetic beads to yield highly pure hCD34+CD19-CAR T cells (FIG. 9B). […] This methodology improves upon previous FKBP/FRB-based drug-regulated CAR systems by eliminating the FKBP/FRB proteins following trans-splicing and generating a mature CAR molecule. […]

T1 sequence (P62942 2-108 limits assumed, one chain of several): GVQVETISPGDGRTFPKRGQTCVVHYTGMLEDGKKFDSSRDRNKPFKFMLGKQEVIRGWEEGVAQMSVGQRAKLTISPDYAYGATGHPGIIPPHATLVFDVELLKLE

B1: FRB* heterodimerization domain (DmrC) (other)
chain: MILWHEMWHEGLEEASRLYFGERNVKGMFEVLEPLHAMMERGPQTLKETSFNQAYGRDLMEAQEWCRKYMKSGNVKDLLQAWDLYYHVFRRISK
notes: also called FRB drug-induced heterodimerization domain (DmrC); FRB (DmrB)
B1: binds.

From patent publication US20250289887A1 (Memorial Sloan Kettering, published 2025)
